# Assay results as given in PMC5600425.
# Like-named read-outs stand apart in the source and are kept apart here.
# T1: AgrA (Staphylococcus aureus COL, UniProt Q5HEG2 1-238)
# T1 sequence: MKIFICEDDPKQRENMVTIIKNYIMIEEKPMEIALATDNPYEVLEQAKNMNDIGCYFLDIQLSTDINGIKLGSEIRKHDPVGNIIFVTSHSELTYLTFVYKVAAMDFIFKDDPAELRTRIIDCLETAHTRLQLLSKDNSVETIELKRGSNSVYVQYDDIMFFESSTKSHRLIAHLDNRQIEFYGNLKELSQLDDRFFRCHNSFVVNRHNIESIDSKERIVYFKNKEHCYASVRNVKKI
# T2: AgrA~P (Staphylococcus aureus COL, UniProt Q5HEG2 1-238)
# T2 sequence: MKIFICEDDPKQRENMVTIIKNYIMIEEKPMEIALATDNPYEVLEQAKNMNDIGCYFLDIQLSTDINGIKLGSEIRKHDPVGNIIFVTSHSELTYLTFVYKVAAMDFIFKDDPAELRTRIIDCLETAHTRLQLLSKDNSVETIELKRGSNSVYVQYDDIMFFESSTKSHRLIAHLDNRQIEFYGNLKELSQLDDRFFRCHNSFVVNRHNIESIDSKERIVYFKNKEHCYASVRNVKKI
# T3: AgrA DBD (LytTR domain) (Staphylococcus aureus, UniProt Q5HEG2 138-238)
# T3 sequence: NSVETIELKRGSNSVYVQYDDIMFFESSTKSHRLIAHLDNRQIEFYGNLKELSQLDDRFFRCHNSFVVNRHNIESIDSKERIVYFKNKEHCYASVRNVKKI
# How the values were obtained:
# AgrA [1] = target: T1, AgrA; assay: competition
# AgrA~P [2] = target: T2, AgrA~P; assay: SPR
# AgrA [3] = target: T1, AgrA; assay: SPR
# AgrA DBD (LytTR domain) [4] = target: T3, AgrA DBD (LytTR domain); assay: X-ray crystallography
# AgrA DBD (LytTR domain) [5] = target: T3, AgrA DBD (LytTR domain); assay: X-ray crystallography; remark: listed apart in the source
# AgrA DBD (LytTR domain) [6] = target: T3, AgrA DBD (LytTR domain); assay: X-ray crystallography; remark: listed apart in the source
# AgrA~P [7] = target: T2, AgrA~P; assay: competition
# AgrA DBD (LytTR domain) [8] = target: T3, AgrA DBD (LytTR domain); assay: X-ray crystallography; remark: listed apart in the source
binder,measurement,setting,value
P1 promoter (SPR) (dsDNA) DNA 1: TCGAAATACCCGATGAAGTAAGTAGCATTAACTT DNA 2: AAGTTAATGCTACTTACTTCATCGGGTATTTCGA,binding result,AgrA [1],binds
P2-P3 intergenic region (negative control) (dsDNA) DNA 1: TTTTTATGTTAAAATATTAAATACAAATTAC DNA 2: GTAATTTGTATTTAATATTTTAACATAAAAA,binding result,AgrA~P [2],no binding
same,binding result,AgrA [3],no binding
P2_S2 (dsDNA) DNA 1: TTTAACAGTTAAGTAT DNA 2: AATACTTAACTGTTAA,binding result,AgrA DBD (LytTR domain) [4],binds
P3_S2 (dsDNA) DNA 1: ATTTACAGTTAAGAAT DNA 2: AATTCTTAACTGTAAA,binding result,AgrA DBD (LytTR domain) [5],binds
P3_S1 (dsDNA) DNA 1: TCGACTAGTTAAGAAA DNA 2: ATTTCTTAACTAGTCG,binding result,AgrA DBD (LytTR domain) [6],binds
P3 promoter (SPR) (dsDNA) DNA 1: TTCTTAACTAGTCGTTTTTTATTCTTAACTGTAA DNA 2: TTACAGTTAAGAATAAAAAACGACTAGTTAAGAA,binding result,AgrA [1],binds
same,binding result,AgrA~P [7],binds
P2_S1 (dsDNA) DNA 1: TCCTACAGTTAGGCAA DNA 2: ATTGCCTAACTGTAGG,binding result,AgrA DBD (LytTR domain) [8],binds
